{"source": "the supplement of paper PMC10724198", "note": "± gives the standard deviation of the averaged measurements.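 Also: PSI is a weighted mean of sequencing reads over stability bins, variants kept only with over 10 reads, mCherry proximal and sfGFP distal, peptide attached via GGGS linker.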"}
{"tested_on": "Saccharomyces cerevisiae", "assay": "protein stability index of tFT-peptide fusion (C-terminal peptide) (PSI (0-1 scale)); higher = more stable (slower turnover)", "conditions": "genetic background: wild type; temperature: 30 C"}
{"sequence": "KSVSIKGKFTSK", "protein stability index": "0.6494 ± 0.00087"}
{"sequence": "KRESETPKKHRK", "protein stability index": "0.711 ± 0.068"}
{"sequence": "PRPPPPRIPRPD", "protein stability index": "0.7 ± 0.12"}
{"sequence": "PSAASIFLPFPL", "protein stability index": "0.733 ± 0.048"}
{"sequence": "RPASVHDLSLQC", "protein stability index": "0.681 ± 0.033"}
{"sequence": "LRLPPPLCPLRS", "protein stability index": "0.623 ± 0.054"}
{"sequence": "GHAYKYVDSFRR", "protein stability index": "0.654 ± 0.044"}
{"sequence": "LPHPRLPSPPGP", "protein stability index": "0.6858 ± 0.0056"}
{"sequence": "SRTLLRVSHLSL", "protein stability index": "0.699 ± 0.02"}
{"sequence": "GVKSSRRSLHGS", "protein stability index": "0.738 ± 0.037"}
{"sequence": "GLGVSLLVGGEA", "protein stability index": "0.6572 ± 0.0028"}
{"sequence": "GDRGIKAYGVRG", "protein stability index": "0.65 ± 0.015"}
{"sequence": "VRGRGRQDVDGG", "protein stability index": "0.699 ± 0.11"}
{"sequence": "GGGARFGLGGRM", "protein stability index": "0.675 ± 0.027"}
{"sequence": "GGRFPGGGGRRR", "protein stability index": "0.583 ± 0.06"}
{"sequence": "RLPSSSFSPHRA", "protein stability index": "0.688 ± 0.0069"}
{"sequence": "WLPTTPLPPLSP", "protein stability index": "0.703 ± 0.018"}
{"sequence": "PLSLPPPPPSLP", "protein stability index": "0.723 ± 0.022"}
{"sequence": "TVGGAMSCLGWL", "protein stability index": "0.714 ± 0.011"}
{"sequence": "LPSLFSPPLFPL", "protein stability index": "0.702 ± 0.0017"}
{"sequence": "PPPPLPPTPPPL", "protein stability index": "0.673 ± 0.025"}
{"sequence": "VRGFFTLSGNLI", "protein stability index": "0.716 ± 0.072"}
{"sequence": "IKNENKKKKNKK", "protein stability index": "0.699 ± 0.024"}
{"sequence": "WSSVSGEFRSLW", "protein stability index": "0.707 ± 0.035"}
{"sequence": "PPSPPHPIRPPA", "protein stability index": "0.713 ± 0.025"}
{"sequence": "FLRLGLLQTFSP", "protein stability index": "0.677 ± 0.04"}
{"sequence": "VKEVSVIKNHQG", "protein stability index": "0.454 ± 0.11"}
{"sequence": "ACTWASSSLARG", "protein stability index": "0.735 ± 0.027"}
{"sequence": "PPPPDHPRSSPV", "protein stability index": "0.688 ± 0.037"}
{"sequence": "DFCPVYRVIIWN", "protein stability index": "0.646 ± 0.029"}
{"sequence": "VRGKGWRGGWWG", "protein stability index": "0.682 ± 0.031"}
{"sequence": "PTPPPPPSPFAL", "protein stability index": "0.804 ± 0.15"}
{"sequence": "VPPHLLAPDPRL", "protein stability index": "0.7158 ± 0.0066"}
{"sequence": "GGSTAKGRPMDT", "protein stability index": "0.645 ± 0.0067"}
{"sequence": "TICRKPTLMSPQ", "protein stability index": "0.775 ± 0.061"}
{"sequence": "APKCRRRNSSGL", "protein stability index": "0.68 ± 0.057"}
{"sequence": "TARGAAARSSQL", "protein stability index": "0.747 ± 0.071"}
{"sequence": "PSPRPPPSPPLP", "protein stability index": "0.695 ± 0.037"}
{"sequence": "WECGRVSVIRRC", "protein stability index": "0.594 ± 0.019"}
{"sequence": "VSGCPVVFRSYC", "protein stability index": "0.693 ± 0.024"}
{"sequence": "PARLQSTLHPRF", "protein stability index": "0.634 ± 0.012"}
{"sequence": "RRSRFSGACLLM", "protein stability index": "0.773 ± 0.13"}
{"sequence": "EEGAGLLWSAVG", "protein stability index": "0.641 ± 0.014"}
{"sequence": "RIIHIHKLFLRR", "protein stability index": "0.677 ± 0.071"}
{"sequence": "VGGRAAIVRGGW", "protein stability index": "0.6853 ± 0.0026"}
{"sequence": "SILWRCEEEIRR", "protein stability index": "0.736 ± 0.029"}
{"sequence": "YGGDMHGNNFSG", "protein stability index": "0.701 ± 0.011"}
{"sequence": "YLPKLSTYRLLR", "protein stability index": "0.654 ± 0.032"}
{"sequence": "GPFWPGRFGFLC", "protein stability index": "0.616 ± 0.0078"}
{"sequence": "PIWWSRSALLAE", "protein stability index": "0.671 ± 0.023"}
{"sequence": "PTHCWSGLSGKG", "protein stability index": "0.703 ± 0.016"}
{"sequence": "VGAAGGVGGSGG", "protein stability index": "0.629 ± 0.048"}
{"sequence": "PPGPGRAPVRPA", "protein stability index": "0.623 ± 0.033"}
{"sequence": "LLFTWGGRGCLG", "protein stability index": "0.746 ± 0.032"}
{"sequence": "QILPVLSKPTWI", "protein stability index": "0.736 ± 0.057"}
{"sequence": "VVAAGGASDVGG", "protein stability index": "0.712 ± 0.056"}
{"sequence": "YFESKWKYAGVR", "protein stability index": "0.699 ± 0.0074"}
{"sequence": "LHGDLLFSVYVL", "protein stability index": "0.597 ± 0.083"}
{"sequence": "SLSDYKAYSKTI", "protein stability index": "0.65 ± 0.013"}
{"sequence": "LSVMACGMGESI", "protein stability index": "0.696 ± 0.017"}
{"sequence": "EQGAGFWVGGEV", "protein stability index": "0.757 ± 0.099"}
{"sequence": "CRCVRVGSVVLD", "protein stability index": "0.632 ± 0.016"}
{"sequence": "PNVHMRVFELFM", "protein stability index": "0.72 ± 0.054"}
{"sequence": "VKYPALMITGFW", "protein stability index": "0.669 ± 0.015"}
{"sequence": "LSRLRVLLTPIS", "protein stability index": "0.56 ± 0.075"}
{"sequence": "PPPPRSLPLLPP", "protein stability index": "0.67 ± 0.073"}
{"sequence": "TLFLFVSSFCMG", "protein stability index": "0.47 ± 0.067"}
{"sequence": "LIFLPPSPLPLS", "protein stability index": "0.709 ± 0.085"}
{"sequence": "PSGFPLRSYLPP", "protein stability index": "0.707 ± 0.049"}
{"sequence": "FCRTSGSVGDHV", "protein stability index": "0.721 ± 0.017"}
{"sequence": "PRPRTQPHPGPG", "protein stability index": "0.711 ± 0.0096"}
{"sequence": "SLGAHHAAFRVV", "protein stability index": "0.63 ± 0.044"}
{"sequence": "PYIFLPLGRAGN", "protein stability index": "0.723 ± 0.076"}
{"sequence": "RRVPTDQYRLLE", "protein stability index": "0.696 ± 0.027"}
{"sequence": "GIKKNQVSIRYI", "protein stability index": "0.606 ± 0.03"}
{"sequence": "GSLVGATVSKEC", "protein stability index": "0.63 ± 0.083"}
{"sequence": "KENNWTKKKKGK", "protein stability index": "0.655 ± 0.064"}
{"sequence": "TFSPRLRPPPPP", "protein stability index": "0.7078 ± 0.0041"}
{"sequence": "GGTGRVGEMGGR", "protein stability index": "0.755 ± 0.034"}
{"sequence": "KKAKEETSTPDC", "protein stability index": "0.67 ± 0.034"}
{"sequence": "SIPVHGPCNRVV", "protein stability index": "0.671 ± 0.025"}
{"sequence": "RAKRPAGTSTRG", "protein stability index": "0.604 ± 0.016"}
{"sequence": "WWEFSCGFVVGG", "protein stability index": "0.671 ± 0.098"}
{"sequence": "KKSRLNRIVMRH", "protein stability index": "0.664 ± 0.073"}
{"sequence": "SPRRSLPPAGFT", "protein stability index": "0.71 ± 0.017"}
{"sequence": "GVVIGGAGYKGT", "protein stability index": "0.633 ± 0.058"}
{"sequence": "PRSPPSPTLPHP", "protein stability index": "0.609 ± 0.027"}
{"sequence": "FLHSERTLCFIS", "protein stability index": "0.537 ± 0.052"}
{"sequence": "LFWFVSLWGGFA", "protein stability index": "0.529 ± 0.073"}
{"sequence": "RKIERKHIKEFS", "protein stability index": "0.664 ± 0.0089"}
{"sequence": "DLLYGLAMSLSN", "protein stability index": "0.704 ± 0.012"}
{"sequence": "VGSGGGAPRVGR", "protein stability index": "0.647 ± 0.072"}
{"sequence": "RSNNKFAKPIQY", "protein stability index": "0.663 ± 0.11"}
{"sequence": "TIGPSYLLPDSF", "protein stability index": "0.784 ± 0.018"}
{"sequence": "GGLSGSRCTLFW", "protein stability index": "0.7342 ± 0.0069"}
{"sequence": "PAPPHTLPVWAD", "protein stability index": "0.728 ± 0.029"}
{"sequence": "GTPHSKGVGFDH", "protein stability index": "0.655 ± 0.048"}
{"sequence": "GVLLGSKFCQQL", "protein stability index": "0.641 ± 0.093"}
{"sequence": "WESWGPDWLCVG", "protein stability index": "0.769 ± 0.035"}
{"sequence": "PRPPAPRTGPPP", "protein stability index": "0.633 ± 0.011"}
{"sequence": "VCSGPKSPATQQ", "protein stability index": "0.695 ± 0.048"}
